According to patent US20150203577A1 (Chugai, published 2015):

Experiments:
[1] = target: T1, mouse FcγRII extracellular domain, C-terminally His-tagged (mouse, UniProt P08101 30-210); assay: SPR Biacore T200, KD ratio
T1 construct: the whole entry is named; also called mFcγRII; mFcgRII
T1 sequence: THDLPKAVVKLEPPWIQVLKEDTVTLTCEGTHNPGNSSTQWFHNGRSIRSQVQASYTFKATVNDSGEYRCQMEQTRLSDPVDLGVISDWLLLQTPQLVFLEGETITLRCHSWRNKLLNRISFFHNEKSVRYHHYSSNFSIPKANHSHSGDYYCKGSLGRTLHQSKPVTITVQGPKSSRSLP
Experimental: (§1) Each altered antibody was analyzed for its interaction with each Fcγ receptor prepared above using Biacore T100 (GE Healthcare Japan Corp.), Biacore T200 (GE Healthcare Japan Corp.), Biacore A100, or Biacore 4000. The running buffer used was HBS-EP+ (GE Healthcare Japan Corp.). The assay temperature was set to 25° C. The sensor chips used were chips prepared by immobilizing Protein L (ACTIGEN or BioVision) onto Series S Sensor Chip CM5 (GE Healthcare Japan Corp.) or Series S Sensor Chip CM4 (GE Healthcare Japan Corp.) by the amine coupling method.
(§2) In order to calculate the KD value of each altered antibody for FcγR, kinetic analysis was conducted according to the following method: first, the antibody of interest was captured onto any of these chips and allowed to interact with mFcγR diluted with a running buffer. For the obtained sensorgram, the assay results were globally fit into the 1:1 Langmuir binding model using Biacore Evaluation Software to calculate an association rate constant ka (L/mol/s) and a dissociation rate constant kd (1/s). From these values, the dissociation constant KD (mol/L) was calculated.

[2] = target: T2, mouse FcγRIII extracellular domain, C-terminally His-tagged (mouse, UniProt P08508 31-215); assay: SPR Biacore T200, KD ratio
T2 construct: the whole entry is named; also called mFcγRIII; mFcgRIII
T2 chain: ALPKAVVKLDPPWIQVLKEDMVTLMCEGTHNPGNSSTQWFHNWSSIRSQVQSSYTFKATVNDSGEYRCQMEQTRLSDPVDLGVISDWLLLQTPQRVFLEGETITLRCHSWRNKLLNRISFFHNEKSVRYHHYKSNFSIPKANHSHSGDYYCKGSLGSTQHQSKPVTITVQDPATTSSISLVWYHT
Experimental: as §1, §2

B1: H237-MB631/MRAL-k0 (antibody, mouse IgG1, kappa)
heavy: QVQLQESGPGLVKPSETLSLTCAVSGHSISHDHAWSWVRQPPGEGLEWIGFISYSGITNYNPSLQGRVTISRDNSKNTLYLQMNSLRAEDTAVYYCARSLARTTAMDYWGEGTLVTVSSAKTTPPSVYPLAPGSAAQTNSMVTLGCLVKGYFPEPVTVTWNSGSLSSGVHTFPAVLQSDLYTLSSSVTVPSSTWPSETVTCNVAHPASSTKVDKKIVPRDCGCKPCICQPNEVELVFIFPPKPKDVLTITLTPKVTCVVVDISKDDPEVQFSWFVDDVEVHTAQTQPREEQFNSTFRSVSELPIMHQDWLNGKEFKCRVNSAAFPAPIEKTISKTKGRPKAPQVYTIPPPKEQMAKDKVSLTCMITDFFPEDITVEWQWNGQPAENYKNTQPIMDTDGSYFVYSKLNVQKSNWEAGNTFTCSVLHEGLHNHHTEKSLSHSPGK
light: not shown
notes: copies: 2 + 2
relative mFcγRII-binding activity (mIgG1 = 1) [1]: 4.29 fold | relative mFcγRIII-binding activity (mIgG1 = 1) [2]: 0.28 fold

B2: H237-MB633/MRAL-k0 (antibody, mouse IgG1, kappa)
heavy: QVQLQESGPGLVKPSETLSLTCAVSGHSISHDHAWSWVRQPPGEGLEWIGFISYSGITNYNPSLQGRVTISRDNSKNTLYLQMNSLRAEDTAVYYCARSLARTTAMDYWGEGTLVTVSSAKTTPPSVYPLAPGSAAQTNSMVTLGCLVKGYFPEPVTVTWNSGSLSSGVHTFPAVLQSDLYTLSSSVTVPSSTWPSETVTCNVAHPASSTKVDKKIVPRDCGCKPCICEDYEVENVFIFPPKPKDVLTITLTPKVTCVVVDISKDDPEVQFSWFVDDVEVHTAQTQPREEQFNSTFRSVSELPIMHQDWLNGKEFKCRVNSAAFPAPIEKTISKTKGRPKAPQVYTIPPPKEQMAKDKVSLTCMITDFFPEDITVEWQWNGQPAENYKNTQPIMDTDGSYFVYSKLNVQKSNWEAGNTFTCSVLHEGLHNHHTEKSLSHSPGK
light: not shown
notes: copies: 2 + 2
relative mFcγRII-binding activity (mIgG1 = 1) [1]: 2.77 fold | relative mFcγRIII-binding activity (mIgG1 = 1) [2]: 0.17 fold

B3: H237-MB637/MRAL-k0 (antibody, mouse IgG1, kappa)
heavy: QVQLQESGPGLVKPSETLSLTCAVSGHSISHDHAWSWVRQPPGEGLEWIGFISYSGITNYNPSLQGRVTISRDNSKNTLYLQMNSLRAEDTAVYYCARSLARTTAMDYWGEGTLVTVSSAKTTPPSVYPLAPGSAAQTNSMVTLGCLVKGYFPEPVTVTWNSGSLSSGVHTFPAVLQSDLYTLSSSVTVPSSTWPSETVTCNVAHPASSTKVDKKIVPRDCGCKPCICEPAEVENVFIFPPKPKDVLTITLTPKVTCVVVDISKDDPEVQFSWFVDDVEVHTAQTQPREEQFNSTFRSVSELPIMHQDWLNGKEFKCRVNSAAFPAPIEKTISKTKGRPKAPQVYTIPPPKEQMAKDKVSLTCMITDFFPEDITVEWQWNGQPAENYKNTQPIMDTDGSYFVYSKLNVQKSNWEAGNTFTCSVLHEGLHNHHTEKSLSHSPGK
light: not shown
notes: copies: 2 + 2
relative mFcγRII-binding activity (mIgG1 = 1) [1]: 2.6 fold | relative mFcγRIII-binding activity (mIgG1 = 1) [2]: 0.15 fold

B4: H237-MB632/MRAL-k0 (antibody, mouse IgG1, kappa)
heavy: QVQLQESGPGLVKPSETLSLTCAVSGHSISHDHAWSWVRQPPGEGLEWIGFISYSGITNYNPSLQGRVTISRDNSKNTLYLQMNSLRAEDTAVYYCARSLARTTAMDYWGEGTLVTVSSAKTTPPSVYPLAPGSAAQTNSMVTLGCLVKGYFPEPVTVTWNSGSLSSGVHTFPAVLQSDLYTLSSSVTVPSSTWPSETVTCNVAHPASSTKVDKKIVPRDCGCKPCICEAYEVENVFIFPPKPKDVLTITLTPKVTCVVVDISKDDPEVQFSWFVDDVEVHTAQTQPREEQFNSTFRSVSELPIMHQDWLNGKEFKCRVNSAAFPAPIEKTISKTKGRPKAPQVYTIPPPKEQMAKDKVSLTCMITDFFPEDITVEWQWNGQPAENYKNTQPIMDTDGSYFVYSKLNVQKSNWEAGNTFTCSVLHEGLHNHHTEKSLSHSPGK
light: not shown
notes: copies: 2 + 2
relative mFcγRII-binding activity (mIgG1 = 1) [1]: 3.64 fold | relative mFcγRIII-binding activity (mIgG1 = 1) [2]: 0.18 fold

B5: H237-MB634/MRAL-k0 (antibody, mouse IgG1, kappa)
heavy: QVQLQESGPGLVKPSETLSLTCAVSGHSISHDHAWSWVRQPPGEGLEWIGFISYSGITNYNPSLQGRVTISRDNSKNTLYLQMNSLRAEDTAVYYCARSLARTTAMDYWGEGTLVTVSSAKTTPPSVYPLAPGSAAQTNSMVTLGCLVKGYFPEPVTVTWNSGSLSSGVHTFPAVLQSDLYTLSSSVTVPSSTWPSETVTCNVAHPASSTKVDKKIVPRDCGCKPCICENYEVENVFIFPPKPKDVLTITLTPKVTCVVVDISKDDPEVQFSWFVDDVEVHTAQTQPREEQFNSTFRSVSELPIMHQDWLNGKEFKCRVNSAAFPAPIEKTISKTKGRPKAPQVYTIPPPKEQMAKDKVSLTCMITDFFPEDITVEWQWNGQPAENYKNTQPIMDTDGSYFVYSKLNVQKSNWEAGNTFTCSVLHEGLHNHHTEKSLSHSPGK
light: not shown
notes: copies: 2 + 2
relative mFcγRII-binding activity (mIgG1 = 1) [1]: 2.52 fold | relative mFcγRIII-binding activity (mIgG1 = 1) [2]: 0.21 fold

B6: H237-MB638/MRAL-k0 (antibody, mouse IgG1, kappa)
heavy: QVQLQESGPGLVKPSETLSLTCAVSGHSISHDHAWSWVRQPPGEGLEWIGFISYSGITNYNPSLQGRVTISRDNSKNTLYLQMNSLRAEDTAVYYCARSLARTTAMDYWGEGTLVTVSSAKTTPPSVYPLAPGSAAQTNSMVTLGCLVKGYFPEPVTVTWNSGSLSSGVHTFPAVLQSDLYTLSSSVTVPSSTWPSETVTCNVAHPASSTKVDKKIVPRDCGCKPCICIPAEVENVFIFPPKPKDVLTITLTPKVTCVVVDISKDDPEVQFSWFVDDVEVHTAQTQPREEQFNSTFRSVSELPIMHQDWLNGKEFKCRVNSAAFPAPIEKTISKTKGRPKAPQVYTIPPPKEQMAKDKVSLTCMITDFFPEDITVEWQWNGQPAENYKNTQPIMDTDGSYFVYSKLNVQKSNWEAGNTFTCSVLHEGLHNHHTEKSLSHSPGK
light: not shown
notes: copies: 2 + 2
relative mFcγRII-binding activity (mIgG1 = 1) [1]: 0.75 fold | relative mFcγRIII-binding activity (mIgG1 = 1) [2]: 0.08 fold

B7: H237-MB635/MRAL-k0 (antibody, mouse IgG1, kappa)
heavy: QVQLQESGPGLVKPSETLSLTCAVSGHSISHDHAWSWVRQPPGEGLEWIGFISYSGITNYNPSLQGRVTISRDNSKNTLYLQMNSLRAEDTAVYYCARSLARTTAMDYWGEGTLVTVSSAKTTPPSVYPLAPGSAAQTNSMVTLGCLVKGYFPEPVTVTWNSGSLSSGVHTFPAVLQSDLYTLSSSVTVPSSTWPSETVTCNVAHPASSTKVDKKIVPRDCGCKPCICETYEVENVFIFPPKPKDVLTITLTPKVTCVVVDISKDDPEVQFSWFVDDVEVHTAQTQPREEQFNSTFRSVSELPIMHQDWLNGKEFKCRVNSAAFPAPIEKTISKTKGRPKAPQVYTIPPPKEQMAKDKVSLTCMITDFFPEDITVEWQWNGQPAENYKNTQPIMDTDGSYFVYSKLNVQKSNWEAGNTFTCSVLHEGLHNHHTEKSLSHSPGK
light: not shown
notes: copies: 2 + 2
relative mFcγRII-binding activity (mIgG1 = 1) [1]: 5.06 fold | relative mFcγRIII-binding activity (mIgG1 = 1) [2]: 0.29 fold

B8: H237-MB639/MRAL-k0 (antibody, mouse IgG1, kappa)
heavy: QVQLQESGPGLVKPSETLSLTCAVSGHSISHDHAWSWVRQPPGEGLEWIGFISYSGITNYNPSLQGRVTISRDNSKNTLYLQMNSLRAEDTAVYYCARSLARTTAMDYWGEGTLVTVSSAKTTPPSVYPLAPGSAAQTNSMVTLGCLVKGYFPEPVTVTWNSGSLSSGVHTFPAVLQSDLYTLSSSVTVPSSTWPSETVTCNVAHPASSTKVDKKIVPRDCGCKPCICEPNEVENVFIFPPKPKDVLTITLTPKVTCVVVDISKDDPEVQFSWFVDDVEVHTAQTQPREEQFNSTFRSVSELPIMHQDWLNGKEFKCRVNSAAFPAPIEKTISKTKGRPKAPQVYTIPPPKEQMAKDKVSLTCMITDFFPEDITVEWQWNGQPAENYKNTQPIMDTDGSYFVYSKLNVQKSNWEAGNTFTCSVLHEGLHNHHTEKSLSHSPGK
light: not shown
notes: copies: 2 + 2
relative mFcγRII-binding activity (mIgG1 = 1) [1]: 4.91 fold | relative mFcγRIII-binding activity (mIgG1 = 1) [2]: 0.38 fold

B9: H237-MB636/MRAL-k0 (antibody, mouse IgG1, kappa)
heavy: QVQLQESGPGLVKPSETLSLTCAVSGHSISHDHAWSWVRQPPGEGLEWIGFISYSGITNYNPSLQGRVTISRDNSKNTLYLQMNSLRAEDTAVYYCARSLARTTAMDYWGEGTLVTVSSAKTTPPSVYPLAPGSAAQTNSMVTLGCLVKGYFPEPVTVTWNSGSLSSGVHTFPAVLQSDLYTLSSSVTVPSSTWPSETVTCNVAHPASSTKVDKKIVPRDCGCKPCICEVYEVENVFIFPPKPKDVLTITLTPKVTCVVVDISKDDPEVQFSWFVDDVEVHTAQTQPREEQFNSTFRSVSELPIMHQDWLNGKEFKCRVNSAAFPAPIEKTISKTKGRPKAPQVYTIPPPKEQMAKDKVSLTCMITDFFPEDITVEWQWNGQPAENYKNTQPIMDTDGSYFVYSKLNVQKSNWEAGNTFTCSVLHEGLHNHHTEKSLSHSPGK
light: not shown
notes: copies: 2 + 2
relative mFcγRII-binding activity (mIgG1 = 1) [1]: 4.41 fold | relative mFcγRIII-binding activity (mIgG1 = 1) [2]: 0.14 fold

B10: H237-MB640/MRAL-k0 (antibody, mouse IgG1, kappa)
heavy: QVQLQESGPGLVKPSETLSLTCAVSGHSISHDHAWSWVRQPPGEGLEWIGFISYSGITNYNPSLQGRVTISRDNSKNTLYLQMNSLRAEDTAVYYCARSLARTTAMDYWGEGTLVTVSSAKTTPPSVYPLAPGSAAQTNSMVTLGCLVKGYFPEPVTVTWNSGSLSSGVHTFPAVLQSDLYTLSSSVTVPSSTWPSETVTCNVAHPASSTKVDKKIVPRDCGCKPCICQPNEVENVFIFPPKPKDVLTITLTPKVTCVVVDISKDDPEVQFSWFVDDVEVHTAQTQPREEQFNSTFRSVSELPIMHQDWLNGKEFKCRVNSAAFPAPIEKTISKTKGRPKAPQVYTIPPPKEQMAKDKVSLTCMITDFFPEDITVEWQWNGQPAENYKNTQPIMDTDGSYFVYSKLNVQKSNWEAGNTFTCSVLHEGLHNHHTEKSLSHSPGK
light: not shown
notes: copies: 2 + 2
relative mFcγRII-binding activity (mIgG1 = 1) [1]: 1.06 fold | relative mFcγRIII-binding activity (mIgG1 = 1) [2]: 0.18 fold
